B1: S. cerevisiae full-length Gea2 with an N-terminal 6xHis-tag (natural protein, UniProt P39993 1-1459, looked up)
chain: MSDREFVTVDPVTIIIKECINLSTAMRKYSKFTSQSGVAALLGGGSEIFSNQDDYLAHTFNNLNTNKHNDPFLSGFIQLRLMLNKLKNLDNIDSLTILQPFLLIVSTSSISGYITSLALDSLQKFFTLNIINESSQNYIGAHRATVNALTHCRFEGSQQLSDDSVLLKVVFLLRSIVDSPYGDLLSNSIIYDVLQTILSLACNNRRSEVLRNAAQSTMIAVTVKIFSKLKTIEPVNVNQIYINDESYTNDVLKADTIGTNVESKEEGSQEDPIGMKVNNEEAISEDDGIEEEHIHSEKSTNGAEQLDIVQKTTRSNSRIQAYADDNYGLPVVRQYLNLLLSLIAPENELKHSYSTRIFGLELIQTALEISGDRLQLYPRLFTLISDPIFKSILFIIQNTTKLSLLQATLQLFTTLVVILGNNLQLQIELTLTRIFSILLDDGTANNSSSENKNKPSIIKELLIEQISILWTRSPSFFTSTFINFDCNLDRADVSINFLKALTKLALPESALTTTESVPPICLEGLVSLVDDMFDHMKDIDREEFGRQKNEMEILKKRDRKTEFIECTNAFNEKPKKGIPMLIEKGFIASDSDKDIAEFLFNNNNRMNKKTIGLLLCHPDKVSLLNEYIRLFDFSGLRVDEAIRILLTKFRLPGESQQIERIIEAFSSAYCENQDYDPSKISDNAEDDISTVQPDADSVFILSYSIIMLNTDLHNPQVKEHMSFEDYSGNLKGCCNHKDFPFWYLDRIYCSIRDKEIVMPEEHHGNEKWFEDAWNNLISSTTVITEIKKDTQSVMDKLTPLELLNFDRAIFKQVGPSIVSTLFNIYVVASDDHISTRMITSLDKCSYISAFFDFKDLFNDILNSIAKGTTLINSSHDDELSTLAFEYGPMPLVQIKFEDTNTEIPVSTDAVRFGRSFKGQLNTVVFFRIIRRNKDPKIFSKELWLNIVNIILTLYEDLILSPDIFPDLQKRLKLSNLPKPSPEISINKSKESKGLLSTFASYLKGDEEPTEEEIKSSKKAMECIKSSNIAASVFGNESNITADLIKTLLDSAKTEKNADNSRYFEAELLFIIELTIALFLFCKEEKELGKFILQKVFQLSHTKGLTKRTVRRMLTYKILLISLCADQTEYLSKLINDELLKKGDIFTQKFFATNQGKEFLKRLFSLTESEFYRGFLLGNENFWKFLRKVTAMKEQSESIFEYLNESIKTDSNILTNENFMWVLGLLDEISSMGAVGNHWEIEYKKLTESGHKIDKENPYKKSIELSLKSIQLTSHLLEDNNDLRKNEIFAIIQALAHQCINPCKQISEFAVVTLEQTLINKIEIPTNEMESVEELIEGGLLPLLNSSETQEDQKILISSILTIISNVYLHYLKLGKTSNETFLKILSIFNKFVEDSDIEKKLQQLILDKKSIEKGNGSSSHGSAHEQTPESNDVEIEATAPIDDNTDDDNKPKLSDVEKD
notes: Gea2, S. cerevisiae, Arf guanine nucleotide exchange factor, 1459 residues, amplified from genomic DNA of BY4741, vector pMCSG21; Homodimer by mass photometry and cryo-EM; also called Gea2 dimer

In data set [1] the target is T1, ΔNT17 Q72L Arl1 in the Arl1–Gea2 complex (Saccharomyces cerevisiae, UniProt P38116, Q72L).
T1 construct: Arl1 lacking N-terminal 17 residues, Q72L, C-terminal 6xHis; full-length Gea2 (1459 residues, dimer), N-terminal 6xHis; both from E. coli NiCo21(DE3); two Arl1 on one Gea2 dimer; with ARF guanine-nucleotide exchange factor 2
T1 sequence (P38116 18-183 Q72L): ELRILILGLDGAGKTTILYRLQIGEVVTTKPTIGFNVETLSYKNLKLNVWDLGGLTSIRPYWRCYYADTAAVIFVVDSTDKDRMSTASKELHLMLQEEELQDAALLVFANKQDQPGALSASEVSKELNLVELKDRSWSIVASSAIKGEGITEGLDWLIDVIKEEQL
T1 sequence (P39993 1-1459 partner): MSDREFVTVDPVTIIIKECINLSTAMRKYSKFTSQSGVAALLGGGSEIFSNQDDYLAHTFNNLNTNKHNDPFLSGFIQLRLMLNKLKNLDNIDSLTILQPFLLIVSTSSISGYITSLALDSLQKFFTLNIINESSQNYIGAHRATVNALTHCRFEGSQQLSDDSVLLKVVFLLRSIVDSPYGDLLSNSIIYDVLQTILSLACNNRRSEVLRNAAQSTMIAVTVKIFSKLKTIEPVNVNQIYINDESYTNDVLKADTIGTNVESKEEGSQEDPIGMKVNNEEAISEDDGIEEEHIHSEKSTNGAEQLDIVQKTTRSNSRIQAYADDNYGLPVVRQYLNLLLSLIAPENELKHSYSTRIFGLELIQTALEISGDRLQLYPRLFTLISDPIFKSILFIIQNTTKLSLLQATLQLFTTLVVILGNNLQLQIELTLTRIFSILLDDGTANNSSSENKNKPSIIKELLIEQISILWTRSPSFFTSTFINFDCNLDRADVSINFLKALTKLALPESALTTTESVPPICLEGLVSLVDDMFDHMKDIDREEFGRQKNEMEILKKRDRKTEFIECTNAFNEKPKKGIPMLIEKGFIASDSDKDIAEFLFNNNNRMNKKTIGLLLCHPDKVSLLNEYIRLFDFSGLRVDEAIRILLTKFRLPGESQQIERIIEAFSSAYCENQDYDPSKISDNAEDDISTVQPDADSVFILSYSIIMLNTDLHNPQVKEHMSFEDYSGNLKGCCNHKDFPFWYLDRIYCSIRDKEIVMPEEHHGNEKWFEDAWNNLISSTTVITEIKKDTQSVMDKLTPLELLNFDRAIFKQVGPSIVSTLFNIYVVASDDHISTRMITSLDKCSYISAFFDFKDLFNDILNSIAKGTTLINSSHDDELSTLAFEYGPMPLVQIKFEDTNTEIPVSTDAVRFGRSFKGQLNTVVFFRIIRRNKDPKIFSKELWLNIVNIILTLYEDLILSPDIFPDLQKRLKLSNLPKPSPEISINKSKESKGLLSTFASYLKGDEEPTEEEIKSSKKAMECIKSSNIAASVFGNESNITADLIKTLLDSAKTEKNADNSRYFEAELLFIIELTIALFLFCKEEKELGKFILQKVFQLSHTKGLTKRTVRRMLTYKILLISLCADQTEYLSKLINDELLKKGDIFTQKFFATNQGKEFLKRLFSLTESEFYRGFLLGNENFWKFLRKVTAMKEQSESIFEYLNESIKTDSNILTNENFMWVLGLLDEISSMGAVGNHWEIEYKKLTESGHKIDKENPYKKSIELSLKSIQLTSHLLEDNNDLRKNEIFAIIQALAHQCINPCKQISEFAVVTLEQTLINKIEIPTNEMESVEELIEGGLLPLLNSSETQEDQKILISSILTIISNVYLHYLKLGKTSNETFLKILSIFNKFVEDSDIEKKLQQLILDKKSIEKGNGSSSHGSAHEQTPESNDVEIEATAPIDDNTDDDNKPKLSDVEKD
The data set is described as follows: cryo-EM structure ([…] Å). Format: binding. Conditions: 1 mM GTP, 1 mM MgCl2, 1 mM TCEP, HEPES pH 7.4, 4 °C; Arl1 nucleotide site; Gea2 bound.

Data set [2] concerns the molecule itself. The data set is described as follows: mass photometry; 44.2 nM Gea2, Refeyn TwoMP, calibrated with β-amylase and thyroglobulin.
Data set [3] addresses B1. The data set is described as follows: SEC; 0.74 μM Gea2 (monomer) with 10-fold molar excess of ΔNT17 Q72L Arl1, 20 mM HEPES pH 7.4, 150 mM NaCl, 1 mM MgCl2, 1 mM TCEP, 1 mM GTP, 4 °C overnight; Superose 6 Increase 10/300 GL; peak fractions on SDS-PAGE. Conditions: both partners purified. Background: SEC sorts molecules by how far they enter the pores of the column.

In the case of `Nc1nc2c(ncn2[C@@H]2O[C@H](COP(=O)(O)OP(=O)(O)OP(=O)(O)O)[C@@H](O)[C@H]2O)c(=O)[nH]1` [GTP], the “cryo-EM structure (3.3 Å)” value in data set [1] was “far away from the γ-phosphate of the bound GTP in our structure”. For B1, the stoichiometry N (as a rule, the number of molecules, sites or subunits per partner or assembly) in data set [2] came out at 2.

B2: N-terminal 17-residue truncated Q72L Arl1 with a C-terminal 6xHis-tag (natural protein, S. cerevisiae, UniProt P38116 18-183, looked up)
chain: ELRILILGLDGAGKTTILYRLQIGEVVTTKPTIGFNVETLSYKNLKLNVWDLGGLTSIRPYWRCYYADTAAVIFVVDSTDKDRMSTASKELHLMLQEEELQDAALLVFANKQDQPGALSASEVSKELNLVELKDRSWSIVASSAIKGEGITEGLDWLIDVIKEEQL
notes: Arl1, S. cerevisiae, the N-terminal 17 residues (amphipathic helix) removed, Q72L keeps it GTP-restricted; vector pMCSG28; mixed with Gea2 in buffer with 1 mM GTP; also called ΔNT17 Q72L Arl1; Arl1-GTP
Regarding B2, the binding result in data set [3] is reported as “binds”.

The values above are taken from publication PMC10908827, “Structural insight into an Arl1–ArfGEF complex involved in Golgi recruitment of a GRIP-domain golgin” (Nature Communications, 2024).
